Measured values from US20230049752A1 (University of California, published 2023).

Experiments:
[1] = target: human Claudin-6 (CLDN6) (human) (UniProt P56747); assay: FACS, limiting dilution, ARK2 cells
mouse Claudin-6 (CLDN6) = target: T1, mouse Claudin-6 (CLDN6) (mouse, UniProt Q9Z262 1-219); assay: FACS, 293T clone expressing mouse CLDN6, dose not stated (2nd Ab only 1061.72)
T1 construct: whole, on cells; GFP fusion on engineered HEK293T cells; also called Mouse CLDN6; murine CLDN6
T1 sequence (looked up): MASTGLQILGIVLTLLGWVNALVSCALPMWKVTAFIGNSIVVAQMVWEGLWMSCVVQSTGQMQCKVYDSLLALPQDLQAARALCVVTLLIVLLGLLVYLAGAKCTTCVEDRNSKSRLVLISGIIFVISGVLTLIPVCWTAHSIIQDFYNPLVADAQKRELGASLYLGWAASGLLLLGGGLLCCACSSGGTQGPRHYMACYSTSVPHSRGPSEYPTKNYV
Description: Two doses (1.5 μg or 0.3 μg) of the humanized antibodies were tested for binding to either human CLDN6 or murine CLDN6 which proteins were expressed by engineered 293T clones.

[2] = target: human Claudin-6 (CLDN6) (human) (UniProt P56747); assay: flow cytometry, UMUC4 cells (positive cell line); 2nd Ab only 1,114.73
[3] = target: human Claudin-6 (CLDN6) (human) (UniProt P56747); assay: FACS, limiting dilution, OV90 cells
[4] = target: human Claudin-6 (CLDN6) (human) (UniProt P56747); assay: FACS, 1.5 ug Ab, 293T clone expressing human CLDN6 (2nd Ab only 768.07)
[5] = target: human Claudin-6 (CLDN6) (human) (UniProt P56747); assay: KinExA, HEK293T CLDN6-mGFP A11 cells detached by Versene, equilibrium curves 500pM, 10nM; printed 95% CI 0.53nM - 2.03nM
[6] = target: human Claudin-6 (CLDN6) (human) (UniProt P56747); assay: flow cytometry, HEK293T CLDN6-mGFP A11 cells (positive artificial OE cell line); 2nd Ab only 1,242.89
[7] = target: human Claudin-6 (CLDN6) (human) (UniProt P56747); assay: FACS, 0.3 ug Ab, 293T clone expressing human CLDN6 (2nd Ab only 768.07)
[8] = target: human Claudin-6 (CLDN6) (human) (UniProt P56747); assay: FACS, 1.5 ug Ab, ARK2 cells (2nd Ab only 1351.21)
[9] = target: human Claudin-6 (CLDN6) (human) (UniProt P56747); assay: FACS, limiting dilution, UMUC4 cells
[10] = target: human Claudin-6 (CLDN6) (human) (UniProt P56747); assay: FACS, 0.3 ug Ab, ARK2 cells (2nd Ab only 1351.21)

FACS signal at 0.32 nM [1]: 402 | FACS signal at 1.6 nM [1]: 537 | FACS signal at 8 nM [1]: 991 | FACS signal at 40 nM [1]: 1640 | FACS signal at 200 nM [1]: 3060 | FACS signal at 1000 nM [1]: 11400 | FACS fluorescence (mouse Claudin-6 (CLDN6)): 56100 | flow cytometry signal at 0.1µg Ab/Sample [2]: 8820 | flow cytometry signal at 1µg Ab/Sample [2]: 27300 | FACS signal at 0.32 nM [3]: 393 | FACS signal at 1.6 nM [3]: 567 | FACS signal at 8 nM [3]: 565 | FACS signal at 40 nM [3]: 1140 | FACS signal at 200 nM [3]: 2330 | FACS signal at 1000 nM [3]: 9390 | FACS fluorescence [4]: 169000 | Kd [5]: 1.13 nM | flow cytometry signal at 0.1µg Ab/Sample [6]: 107000 | FACS fluorescence [7]: 106000 | FACS fluorescence [8]: 90400 | FACS signal at 0.32 nM [9]: 604 | FACS signal at 1.6 nM [9]: 570 | FACS signal at 8 nM [9]: 724 | FACS signal at 40 nM [9]: 1120 | FACS signal at 200 nM [9]: 2110 | FACS signal at 1000 nM [9]: 9840 | FACS fluorescence [10]: 36000
B1: AB3-7 (antibody, V domains shown)
VH: EVQLLESGGGLVQPGGSMRLSCAASGFTFSNYWMNWVRQAPGKGLEWVAQIRLKSDNYATHYADSVKGRFTISRDDSKNTVYLQMNSLRAEDTGVYYCNDGPPSGSWGQGTLLTVSS
VL: DIQMTQSPSSLSASVGDRVTITCRISENIYSYLAWYQQKPGKAPKLLVYNAKILVEGVPSRFSGSGSGTDFTLTISSLQPEDFGTYYCQHHYTVPWTFGQGTKLEIK
notes: humanized; also called AB23; humanized AB3-7
